Consider four molecules from US20260109761A1 (IP2IPO INNOVATIONS, published 2026).

Residue numbers refer to the chain shown, from its start.

First the molecules themselves.
B1: H2_T63Y_VL-par (antibody, V domains shown)
VH: QVQLVESGGGVVQPGRSLRLSCAASGFTFSDYGMHWVRQAPGKGLEWVAYISSGGTTIYYADYVKGRFTISRDNSKNTLYLQMNSLRAEDTAVYYCARWTNLYAMDYWGQGTTVTVSS
VL: DIVLTQSPDSLAVSLGERATINCRASKSVSTSGYSYMHWYQQKPGQPPKFLIYLASNLESGVPDRFSGSGSGTDFTLTISSLQAEDVAVYYCQHSREVPYTFGGGTKVEIKR
notes: Fc null human IgG1 / human kappa
B2: H3_M105P_L2 (antibody, V domains shown)
VH: B1 VH with Y63T, M105P
VL: B1 VL with L58K
notes: as for B1
B3: H2_Y60K_L2 (antibody, V domains shown)
VH: B1 VH with Y60K, Y63T
VL: B1 VL with L58K
notes: as for B1
B4: H3_W99H_VL-par (antibody, V domains shown)
VH: B1 VH with Y63T, W99H
VL: B1 VL
notes: as for B1

T1 sequence (Q504Y0 24-202): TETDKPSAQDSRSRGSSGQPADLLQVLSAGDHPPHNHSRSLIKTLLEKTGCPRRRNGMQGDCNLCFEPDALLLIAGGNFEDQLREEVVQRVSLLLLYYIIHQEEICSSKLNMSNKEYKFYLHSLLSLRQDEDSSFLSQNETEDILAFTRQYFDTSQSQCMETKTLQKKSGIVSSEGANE

This assay has as its target T1, huZIP12-ECD-GST (human, UniProt Q504Y0 24-202).
T1 construct: also called hZIP12-ECD-GST; human ZIP12-ECD-GST; not shown: glutathione S-transferase (GST) tag
Briefly: HTRF competition: unlabelled antibody against Tb-labelled 51B12-parent on hZIP12-ECD-GST, detected with anti-GST-XL665. On the procedure:
Homogeneous Time Resolved Fluorescence (HTRF) assays were used to analyse the antibodies. A checkerboard assay was performed to validate the binding of the terbium labeled-antibody with hZIP12-ECD-GST. Serial dilutions (starting at 1000 ng/ml, semi-log dilutions) of Terbium-labeled 51B12-parent were incubated with serial dilutions of hZIP12-ECD-GST (starting at 5000 ng/ml, semi-log dilutions) followed by incubation with anti-GST-XL665. After excitation (320 nm), emission signals were obtained and HTRF ratio was calculated (665 nm/615 nm, Panel A). Signal/background ratios (S/B) were calculated from the HTRF ratios (0 ng/ml hZIP12-ECD-GST as background signal) and plotted against the Tb-51B12-parent concentration. The combinations 500 ng/ml hZIP12-ECD-GST+50 ng Tb-Ab, 150 ng/ml hZIP12-ECD-GST+50 ng Tb-Ab and 50 ng/ml hZIP12-ECD-GST+50 ng Tb-Ab were chosen as range for the competition assay. For the HTRF assay, 150 ng/ml hZIP12-ECD-GST+30 ng/ml Tb-51B12 was selected.
On the technique in general: TR-FRET usually uses a lanthanide donor and a delayed reading to cut background.
As to B1, the “IC50 (read off the curve)” value was around 0.2 µg/mL.
The value for B2 was around 0.2 µg/mL; that for B3 was around 0.06 µg/mL; that for B4 was around 0.06 µg/mL.
